# Assay results taken from patent publication US20210260155A1, “H-NOX Proteins for Treating Cardiovascular and Pulmonary Conditions” (OMNIOX.INC., priority 2018, published 2021).
# B1: wild-type T. tengcongensis H-NOX: wild-type Thermoanaerobacter tengcongensis H-NOX protein, SEQ ID NO:2 (protein, listed as Thermoanaerobacter tengcongensis)
# chain: MKGTIVGTWIKTLRDLYGNDVVDESLKSVGWEPDRVITPLEDIDDDEVRRIFAKVSEKTGKNVNEIWREVGRQNIKTFSEWFPSYFAGRRLVNFLMMMDEVHLQLTKMIKGATPPRLIAKPVAKDAIEMEYVSKRKMYDYFLGLIEGSSKFFKEEISVEEVERGEKDGFSRLKVRIKFKNPVFE
# Test: NO reactivity
# Type: biochemical
# Procedure: NO reactivity is measured using purified proteins (H-NOX, polymeric H-NOX, Homo sapiens hemoglobin (Hs Hb) etc.) prepared at 2 μM in buffer A and NO prepared at 200 μM in Buffer A (Buffer A: 50 mM Hepes, pH 7.5, 50 mM NaCl). Data are acquired on a HI-TECH Scientific SF-61 stopped-flow spectrophotometer equipped with a Neslab RTE-100 constant-temperature bath set to 20° C. (TGK Scientific LTD., Bradford On Avon, United Kingdom). The protein is rapidly mixed with NO in a 1:1 ratio with an integration time of 0.00125 sec. The wavelengths of maximum change are fit to a single exponential using the software that is part of the spectrometer, essentially measuring the rate-limiting step of oxidation by NO. The end products of the reaction are ferric-NO for the HNOX proteins and ferric-aquo for Hs Hb.
molecule,measurement,value
B1,NO reactivity,low
